In publication PMC11180205, “Single-molecule reconstruction of eukaryotic factor-dependent transcription termination” (Nature Communications, 2024):

Substrate: Nc1ncnc2c1ncn2[C@@H]1O[C@H](COP(=O)(O)OP(=O)(O)OP(=O)(O)O)[C@@H](O)[C@H]1O
Experiment: single-molecule fluorescence (FRET / SNAP649 dwell time), Michaelis-Menten fit of k1 versus ATP
Type: biochemical, Saccharomyces cerevisiae
Settings: k1 step: ATP-dependent translocation on nascent RNA to stalled Pol II TEC (bioPol II/RNA-Cy3/DNA or Pol II/RNA-Cy3/bioDNA, 28 bp transcription unit); 10 nM Sen1 HD-SNAP649, 2 nM TFIIS, UTP and CTP, 20; pH 8.0

B1: Sen1 HD-SNAP649 (Sen1 helicase domain) (Saccharomyces cerevisiae S288C) (protein)
chain: AELAKQELEHMRKRLNVDMNPLYEIILQWDYTRNSEYPDDEPIGNYSDVKDFFNSPADYQKVMKPLLLLESWQGLCSSRDREDYKPFSIIVGNRTAVSDFYDVYASVAKQVIQDCGISESDLIVMAYLPDFRPDKRLSSDDFKKAQHTCLAKVRTLKNTKGGNVDVTLRIHRNHSFSKFLTLRSEIYCVKVMQMTTIEREYSTLEGLEYYDLVGQILQAKPSPPVNVDAAEIETVKKSYKLNTSQAEAIVNSVSKEGFSLIQGPPGTGKTKTILGIIGYFLSTKNASSSNVIKVPLEKNSSNTEQLLKKQKILICAPSNAAVDEICLRLKSGVYDKQGHQFKPQLVRVGRSDVVNVAIKDLTLEELVDKRIGERNYEIRTDPELERKFNNAVTKRRELRGKLDSESGNPESPMSTEDISKLQLKIRELSKIINELGRDRDEMREKNSVNYRNRDLDRRNAQAHILAVSDIICSTLSGSAHDVLATMGIKFDTVIIDEACQCTELSSIIPLRYGGKRCIMVGDPNQLPPTVLSGAASNFKYNQSLFVRMEKNSSPYLLDVQYRMHPSISKFPSSEFYQGRLKDGPGMDILNKRPWHQLEPLAPYKFFDIISGRQEQNAKTMSYTNMEEIRVAIELVDYLFRKFDNKIDFTGKIGIISPYREQMQKMRKEFARYFGGMINKSIDFNTIDGFQGQEKEIILISCVRADDTKSSVGFLKDFRRMNVALTRAKTSIWVLGHQRSLAKSKLWRDLIEDAKDRSCLAYACSGFLDPRNNRAQSILRKFNVPVPSEQEDDYKLPMEYITQGPDEVKSN
notes: helicase domain, residues 1095-1904; C-terminal PreScission site, SNAP-tag and 10xHis-tag kept, labelled with SNAP-Surface 649; expressed in E. coli BL21(DE3) codon plus RIPL; single molecule acts
B1 gave a Km of 40 ± 15 µM.
